Data published in patent US7833548B2, “Bioactive agent release coating and controlled humidity method” (Surmodics, Inc., priority 2002, dated 2010).

Assay: Bioactive Agent Release Assay, dextran-TRITC from discs with polymer topcoat coated under controlled humidity
Type: physicochemical
Conditions: pEVA (33% vinyl acetate)/pBMA topcoat over dextran-TRITC layer, PBS, 37° C.; FIG. 2
Method: Two solutions were prepared in order to provide a coating composition of the presently claimed invention in the form of a two part system. The first solution was an aqueous solution containing the bioactive agent, dextran-TRITC, at a concentration of 15 mg/ml. The second solution contained poly(ethylene-co-vinylacetate) with a vinyl acetate concentration of 33% (w/w) and poly(n-butyl methacrylate), with approximate weight average molecular weight of 337 kilodaltons. The poly(n-butyl methacrylate) and poly(ethylene-co-vinylacetate) were purified by extraction with organic solvents to remove impurities, e.g., monomer residues. The polymers of the second solution were dissolved in tetrahydrofuran at a concentration of 10 mg/ml. […]
A suitable Bioactive Agent Release Assay, as describe herein, can be used to determine the extent and rate of bioactive agent release under physiological conditions. In general it is desirable that less than 50% of the total quantity of the bioactive agent be released in the first 24 hours. It is frequently desirable for quantities of bioactive agent to be released for a duration of at least 30 days.
Except as otherwise provided herein, each coated disc was placed in an amber vial with 4 mls of PBS. […] The concentration of bioactive agent in each PBS sample was determined using UV spectroscopy. […]

Substance: tetramethylrhodamine isothiocyanate-Dextran [dextran-TRITC]
- release rate of the bioactive agent, topcoat coated at 48% relative humidity versus 10% relative humidity: released at a faster rate
